Measured values published in patent publication US20230416365A1 (Hoffmann-La Roche, published 2023).
Residue numbers refer to the chain shown, from its start. Names may count otherwise.

B1: FAP-CD28CA 1+2 (P1AD8962) (bispecific antibody)
CD28(mAb 9.3) light chain: DIELTQSPASLAVSLGQRATISCRASESVEYYVTSLMQWYQQKPGQPPKLLIFAASNVESGVPARFSGSGSGTNFSLNIHPVDEDDVAMYFCQQSRKVPYTFGGGTKLEIKRTVAAPSVFIFPPSDEQLKSGTASVVCLLNNFYPREAKVQWKVDNALQSGNSQESVTEQDSKDSTYSLSSTLTLSKADYEKHKVYACEVTHQGLSSPVTKSFNRGEC
heavy chain CD28(mAb 9.3) VHCH - Fc knob - FAP(4B9) VH: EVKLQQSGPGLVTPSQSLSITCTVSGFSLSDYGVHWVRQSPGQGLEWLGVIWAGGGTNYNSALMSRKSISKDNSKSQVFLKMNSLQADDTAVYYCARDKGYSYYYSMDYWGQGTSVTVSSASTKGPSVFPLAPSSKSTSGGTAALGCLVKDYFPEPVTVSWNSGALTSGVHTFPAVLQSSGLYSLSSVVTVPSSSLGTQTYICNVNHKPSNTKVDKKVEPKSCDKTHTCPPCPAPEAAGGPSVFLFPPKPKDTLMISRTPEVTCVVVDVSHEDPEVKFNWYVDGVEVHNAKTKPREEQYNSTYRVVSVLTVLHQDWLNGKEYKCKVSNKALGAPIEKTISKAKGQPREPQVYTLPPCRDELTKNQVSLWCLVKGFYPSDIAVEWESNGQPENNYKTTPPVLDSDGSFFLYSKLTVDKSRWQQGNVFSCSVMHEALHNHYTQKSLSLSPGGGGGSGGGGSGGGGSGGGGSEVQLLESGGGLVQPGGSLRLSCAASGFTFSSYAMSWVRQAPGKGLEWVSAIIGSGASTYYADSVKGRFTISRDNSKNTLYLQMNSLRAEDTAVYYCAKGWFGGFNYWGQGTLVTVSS
heavy chain CD28(mAb 9.3) VHCH - Fc hole - FAP(4B9) VL: EVKLQQSGPGLVTPSQSLSITCTVSGFSLSDYGVHWVRQSPGQGLEWLGVIWAGGGTNYNSALMSRKSISKDNSKSQVFLKMNSLQADDTAVYYCARDKGYSYYYSMDYWGQGTSVTVSSASTKGPSVFPLAPSSKSTSGGTAALGCLVKDYFPEPVTVSWNSGALTSGVHTFPAVLQSSGLYSLSSVVTVPSSSLGTQTYICNVNHKPSNTKVDKKVEPKSCDKTHTCPPCPAPEAAGGPSVFLFPPKPKDTLMISRTPEVTCVVVDVSHEDPEVKFNWYVDGVEVHNAKTKPREEQYNSTYRVVSVLTVLHQDWLNGKEYKCKVSNKALGAPIEKTISKAKGQPREPQVCTLPPSRDELTKNQVSLSCAVKGFYPSDIAVEWESNGQPENNYKTTPPVLDSDGSFFLVSKLTVDKSRWQQGNVFSCSVMHEALHNHYTQKSLSLSPGGGGGSGGGGSGGGGSGGGGSEIVLTQSPGTLSLSPGERATLSCRASQSVTSSYLAWYQQKPGQAPRLLINVGSRRATGIPDRFSGSGSGTDFTLTISRLEPEDFAVYYCQQGIMLPPTFGQGTKVEIK
notes: also called Molecule Q; FAP(4B9)-CD28(mAb9.3) 1+2
B2: FAP-CD28CA 2+2 (P1AD8968) (bispecific antibody)
heavy chain CD28(mAb 9.3) VHCH EE - Fc PGLALA - FAP(4B9) VHCL: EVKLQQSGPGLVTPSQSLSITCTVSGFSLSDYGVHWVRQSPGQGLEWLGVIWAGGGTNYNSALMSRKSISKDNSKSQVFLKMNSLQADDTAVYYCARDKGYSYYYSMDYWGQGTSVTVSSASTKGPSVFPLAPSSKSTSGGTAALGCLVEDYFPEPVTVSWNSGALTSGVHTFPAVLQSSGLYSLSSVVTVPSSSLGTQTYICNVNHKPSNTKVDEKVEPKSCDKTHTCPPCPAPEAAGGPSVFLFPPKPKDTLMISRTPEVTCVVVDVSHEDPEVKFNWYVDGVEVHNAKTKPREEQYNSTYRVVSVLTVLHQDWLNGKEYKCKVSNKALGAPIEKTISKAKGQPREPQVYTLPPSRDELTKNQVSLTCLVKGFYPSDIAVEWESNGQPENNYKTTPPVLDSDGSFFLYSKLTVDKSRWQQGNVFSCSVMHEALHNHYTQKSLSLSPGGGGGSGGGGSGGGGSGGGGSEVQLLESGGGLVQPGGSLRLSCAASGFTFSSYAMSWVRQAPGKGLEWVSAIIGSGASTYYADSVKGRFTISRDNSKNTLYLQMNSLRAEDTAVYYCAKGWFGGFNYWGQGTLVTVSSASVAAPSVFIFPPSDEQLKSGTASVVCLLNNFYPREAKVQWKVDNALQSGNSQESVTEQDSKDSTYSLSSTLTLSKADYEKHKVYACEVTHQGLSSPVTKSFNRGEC
CD28(mAb 9.3) light chain VLCL RK: B1 CD28(mAb 9.3) light chain with E127R, Q128K
FAP(4B9) VLCH1: EIVLTQSPGTLSLSPGERATLSCRASQSVTSSYLAWYQQKPGQAPRLLINVGSRRATGIPDRFSGSGSGTDFTLTISRLEPEDFAVYYCQQGIMLPPTFGQGTKVEIKSSASTKGPSVFPLAPSSKSTSGGTAALGCLVKDYFPEPVTVSWNSGALTSGVHTFPAVLQSSGLYSLSSVVTVPSSSLGTQTYICNVNHKPSNTKVDKKVEPKSC
notes: also called Molecule R; FAP(4B9)-CD28(mAb9.3) 2+2
B3: FAP(4B9)-CD28(SA) 1+2 format (Molecule E) (bispecific antibody, human IgG1, kappa, L234A L235A)
heavy 1: not shown
heavy 2: QVQLVQSGAEVKKPGASVKVSCKASGYTFTSYYIHWVRQAPGQGLEWIGCIYPGNVNTNYNEKFKDRATLTVDTSISTAYMELSRLRSDDTAVYFCTRSHYGLDWNFDVWGQGTTVTVSSASTKGPSVFPLAPSSKSTSGGTAALGCLVKDYFPEPVTVSWNSGALTSGVHTFPAVLQSSGLYSLSSVVTVPSSSLGTQTYICNVNHKPSNTKVDKKVEPKSCDKTHTCPPCPAPEAAGGPSVFLFPPKPKDTLMISRTPEVTCVVVDVSHEDPEVKFNWYVDGVEVHNAKTKPREEQYNSTYRVVSVLTVLHQDWLNGKEYKCKVSNKALGAPIEKTISKAKGQPREPQVCTLPPSRDELTKNQVSLSCAVKGFYPSDIAVEWESNGQPENNYKTTPPVLDSDGSFFLVSKLTVDKSRWQQGNVFSCSVMHEALHNHYTQKSLSLSPGGGGGSGGGGSGGGGSGGGGSEIVLTQSPGTLSLSPGERATLSCRASQSVTSSYLAWYQQKPGQAPRLLINVGSRRATGIPDRFSGSGSGTDFTLTISRLEPEDFAVYYCQQGIMLPPTFGQGTKVEIK
light: not shown
notes: bivalent anti-CD28, monovalent anti-FAP (VH and VL fused to the C-termini of the Fc chains); also called P1AD9011; FAP-CD28 1+2 SA
B4: FAP-CD28 CTF (P1AE2236) (bispecific antibody, human IgG1, kappa, L234A L235A)
CD28(SA) light chain: not shown
heavy chain CD28(SA) VHCH - Fc hole - FAP(4B9) VL: B3 heavy 2
Fc knob - FAP(4B9) VH: not shown
notes: also called Molecule I; FAP(4B9)-CD28(SA) C-04
B5: FAP(4B9)-CD28(SA) 1+1 format (Molecule C) (bispecific antibody, human IgG1, kappa, L234A L235A)
heavy 1: not shown
light 1: not shown
heavy 2: EIVLTQSPGTLSLSPGERATLSCRASQSVTSSYLAWYQQKPGQAPRLLINVGSRRATGIPDRFSGSGSGTDFTLTISRLEPEDFAVYYCQQGIMLPPTFGQGTKVEIKSSASTKGPSVFPLAPSSKSTSGGTAALGCLVKDYFPEPVTVSWNSGALTSGVHTFPAVLQSSGLYSLSSVVTVPSSSLGTQTYICNVNHKPSNTKVDKKVEPKSCDKTHTCPPCPAPEAAGGPSVFLFPPKPKDTLMISRTPEVTCVVVDVSHEDPEVKFNWYVDGVEVHNAKTKPREEQYNSTYRVVSVLTVLHQDWLNGKEYKCKVSNKALGAPIEKTISKAKGQPREPQVCTLPPSRDELTKNQVSLSCAVKGFYPSDIAVEWESNGQPENNYKTTPPVLDSDGSFFLVSKLTVDKSRWQQGNVFSCSVMHEALHNHYTQKSLSLSP
light 2: EVQLLESGGGLVQPGGSLRLSCAASGFTFSSYAMSWVRQAPGKGLEWVSAIIGSGASTYYADSVKGRFTISRDNSKNTLYLQMNSLRAEDTAVYYCAKGWFGGFNYWGQGTLVTVSSASVAAPSVFIFPPSDEQLKSGTASVVCLLNNFYPREAKVQWKVDNALQSGNSQESVTEQDSKDSTYSLSSTLTLSKADYEKHKVYACEVTHQGLSSPVTKSFNRGEC
notes: huIgG1 PG-LALA CrossFab, knob-into-hole; also called P1AD4492; parental
B6: FAP-CD28 H2T (P1AE2021) (bispecific antibody, human IgG1, kappa, L234A L235A)
heavy chain CD28(SA) VLCH1 - FAP(4B9) VHCH1 EE - Fc knob PGLALA: not shown
CD28(SA) VHCL: QVQLVQSGAEVKKPGASVKVSCKASGYTFTSYYIHWVRQAPGQGLEWIGCIYPGNVNTNYNEKFKDRATLTVDTSISTAYMELSRLRSDDTAVYFCTRSHYGLDWNFDVWGQGTTVTVSSASVAAPSVFIFPPSDEQLKSGTASVVCLLNNFYPREAKVQWKVDNALQSGNSQESVTEQDSKDSTYSLSSTLTLSKADYEKHKVYACEVTHQGLSSPVTKSFNRGEC
FAP(4B9) VLCL RK: EIVLTQSPGTLSLSPGERATLSCRASQSVTSSYLAWYQQKPGQAPRLLINVGSRRATGIPDRFSGSGSGTDFTLTISRLEPEDFAVYYCQQGIMLPPTFGQGTKVEIKRTVAAPSVFIFPPSDRKLKSGTASVVCLLNNFYPREAKVQWKVDNALQSGNSQESVTEQDSKDSTYSLSSTLTLSKADYEKHKVYACEVTHQGLSSPVTKSFNRGEC
Fc hole PGLALA: DKTHTCPPCPAPEAAGGPSVFLFPPKPKDTLMISRTPEVTCVVVDVSHEDPEVKFNWYVDGVEVHNAKTKPREEQYNSTYRVVSVLTVLHQDWLNGKEYKCKVSNKALGAPIEKTISKAKGQPREPQVCTLPPSRDELTKNQVSLSCAVKGFYPSDIAVEWESNGQPENNYKTTPPVLDSDGSFFLVSKLTVDKSRWQQGNVFSCSVMHEALHNHYTQKSLSLSP
notes: head-to-tail 1+1 format; also called Molecule H; FAP(4B9)-CD28(SA) C-01

Key:
[1] = biological target: T1, human FAP on 3T3-huFAP cells (clone 19) (human, UniProt Q12884 1-760); experiment: flow cytometry on 3T3-huFAP cells, PE anti-human secondary antibody, median fluorescence intensity
Description: (§1) Binding was assessed by flow cytometry with a FACS Fortessa (BD, Software FACS Diva). Binding curves were obtained using GraphPadPrism6.

[2] = biological target: T1, human FAP on 3T3-huFAP cells (clone 19); experiment: flow cytometry on 3T3-huFAP cells, median fluorescence intensity (axis MFI APC)
Description: as §1

Binder | EC50 (read off the curve) [2] | other results
B1 |  | binding result [1]: binds
B2 |  | EC50 (read off the curve) [1]: ~1 nM
B3 | ~4 nM | 
B4 | ~2 nM | 
B5 | ~1 nM | 
B6 | ~1 nM | 
